Test results taken from patent US20060257938A1, “Method of screening for drugs that block ligand binding to a lipid binding protein” (priority 2005, published 2006).
Where “and” joins values, the source holds several entries; their conditions need not be identical. Equal entries are not always repeated.

How the values were obtained:
Format in all cases: binding
[1] = Probe fluorescence ratio response to oleic acid relative to ADIFAB2; conditions: response relative to ADIFAB2
Procedure, shortened: (§1)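 Each fatty acid's response was expressed relative to ADIFAB2, the rI-FABP-L72A probe, as ΔR/ΔRreference. ΔR is the change in the background-corrected two-wavelength intensity ratio R=Fλ1/Fλ2 from its analyte-free baseline R0. Emission was read near about 420-480 nm for unbound and about 495-580 nm for FFA-bound probe.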

[2] = Probe fluorescence ratio response to arachidonic acid relative to ADIFAB2; conditions: arachidonic acid; response relative to ADIFAB2
Procedure, shortened: as §1

[3] = Probe fluorescence ratio response to palmitic acid relative to ADIFAB2; conditions: response relative to ADIFAB2
Procedure, shortened: as §1

[4] = Probe fluorescence ratio response to linoleic acid relative to ADIFAB2; conditions: response relative to ADIFAB2
Procedure, shortened: as §1

[5] = Probe fluorescence ratio response to linolenic acid relative to ADIFAB2; conditions: response relative to ADIFAB2
Procedure, shortened: as §1

B1: 34S, 72A (protein, listed as Rattus norvegicus)
chain: AFDGTWKVDRNENYEKFMEKMGINVVKRKLGAHSNLKLTITQEGNKFTVKESSNFRNIDVVFELGVDFAYSAADGTELTGTWTMEGNKLVGKFKRVDNGKELIAVREISGNELIQTYTYEGVEAKRIFKKE
modifications: PEPTIDE (1)...(131) wild-type rat intestinal fatty acid binding protein
- DR/DR OA [1]: 0.58
- DR/DR AA [2]: 0.58
- DR/DR PA [3]: 0.43
- DR/DR LA [4]: 0.65
- DR/DR LNA [5]: 0.59

B2: 34T, 72A (protein, listed as Rattus norvegicus)
chain: AFDGTWKVDRNENYEKFMEKMGINVVKRKLGAHTNLKLTITQEGNKFTVKESSNFRNIDVVFELGVDFAYSAADGTELTGTWTMEGNKLVGKFKRVDNGKELIAVREISGNELIQTYTYEGVEAKRIFKKE
modifications: PEPTIDE (1)...(131) wild-type rat intestinal fatty acid binding protein
- DR/DR OA [1]: 0.53
- DR/DR AA [2]: 0.61
- DR/DR PA [3]: 0.40
- DR/DR LA [4]: 0.64
- DR/DR LNA [5]: 0.67

B3: 34V, 72A (protein, listed as Rattus norvegicus)
chain: AFDGTWKVDRNENYEKFMEKMGINVVKRKLGAHVNLKLTITQEGNKFTVKESSNFRNIDVVFELGVDFAYSAADGTELTGTWTMEGNKLVGKFKRVDNGKELIAVREISGNELIQTYTYEGVEAKRIFKKE
modifications: PEPTIDE (1)...(131) wild-type rat intestinal fatty acid binding protein
- DR/DR OA [1]: 1.19
- DR/DR AA [2]: 1.22
- DR/DR PA [3]: 1.11
- DR/DR LA [4]: 1.15
- DR/DR LNA [5]: 1.21

B4: 34W, 72A (protein, listed as Rattus norvegicus)
chain: AFDGTWKVDRNENYEKFMEKMGINVVKRKLGAHWNLKLTITQEGNKFTVKESSNFRNIDVVFELGVDFAYSAADGTELTGTWTMEGNKLVGKFKRVDNGKELIAVREISGNELIQTYTYEGVEAKRIFKKE
modifications: PEPTIDE (1)...(131) wild-type rat intestinal fatty acid binding protein
- DR/DR OA [1]: 1.38 and 1.210
- DR/DR AA [2]: 1.31 and 1.060
- DR/DR PA [3]: 0.93 and 0.920
- DR/DR LA [4]: 1.34 and 1.110
- DR/DR LNA [5]: 1.37 and 1.130

B5: 34Y, 72A (protein, listed as Rattus norvegicus)
chain: AFDGTWKVDRNENYEKFMEKMGINVVKRKLGAHYNLKLTITQEGNKFTVKESSNFRNIDVVFELGVDFAYSAADGTELTGTWTMEGNKLVGKFKRVDNGKELIAVREISGNELIQTYTYEGVEAKRIFKKE
modifications: PEPTIDE (1)...(131) wild-type rat intestinal fatty acid binding protein
- DR/DR OA [1]: 1.19
- DR/DR AA [2]: 1.22
- DR/DR PA [3]: 1.06
- DR/DR LA [4]: 1.24
- DR/DR LNA [5]: 1.22

B6: 36A, 72A (protein, listed as Rattus norvegicus)
chain: AFDGTWKVDRNENYEKFMEKMGINVVKRKLGAHDNAKLTITQEGNKFTVKESSNFRNIDVVFELGVDFAYSAADGTELTGTWTMEGNKLVGKFKRVDNGKELIAVREISGNELIQTYTYEGVEAKRIFKKE
modifications: PEPTIDE (1)...(131) wild-type rat intestinal fatty acid binding protein
- DR/DR OA [1]: 0.46
- DR/DR AA [2]: 0.53
- DR/DR PA [3]: 0.46
- DR/DR LA [4]: 0.51
- DR/DR LNA [5]: 0.50

B7: 36C3, 72A (protein, listed as Rattus norvegicus)
chain: AFDGTWKVDRNENYEKFMEKMGINVVKRKLGAHDNCKLTITQEGNKFTVKESSNFRNIDVVFELGVDFAYSAADGTELTGTWTMEGNKLVGKFKRVDNGKELIAVREISGNELIQTYTYEGVEAKRIFKKE
modifications: PEPTIDE (1)...(131) wild-type rat intestinal fatty acid binding protein
- DR/DR OA [1]: −0.40
- DR/DR AA [2]: −0.22
- DR/DR PA [3]: −0.21
- DR/DR LA [4]: −0.36
- DR/DR LNA [5]: −0.30

B8: 36D1, 72A (protein, listed as Rattus norvegicus)
chain: AFDGTWKVDRNENYEKFMEKMGINVVKRKLGAHDNDKLTITQEGNKFTVKESSNFRNIDVVFELGVDFAYSAADGTELTGTWTMEGNKLVGKFKRVDNGKELIAVREISGNELIQTYTYEGVEAKRIFKKE
modifications: PEPTIDE (1)...(131) wild-type rat intestinal fatty acid binding protein
- DR/DR OA [1]: 0.20
- DR/DR AA [2]: 0.20
- DR/DR PA [3]: 0.18
- DR/DR LA [4]: 0.27
- DR/DR LNA [5]: 0.21

B9: 36E2, 72A (protein, listed as Rattus norvegicus)
chain: AFDGTWKVDRNENYEKFMEKMGINVVKRKLGAHDNEKLTITQEGNKFTVKESSNFRNIDVVFELGVDFAYSAADGTELTGTWTMEGNKLVGKFKRVDNGKELIAVREISGNELIQTYTYEGVEAKRIFKKE
modifications: PEPTIDE (1)...(131) wild-type rat intestinal fatty acid binding protein
- DR/DR OA [1]: 0.20
- DR/DR AA [2]: 0.24
- DR/DR PA [3]: 0.19
- DR/DR LA [4]: 0.25
- DR/DR LNA [5]: 0.23

B10: 36F1, 72A (protein, listed as Rattus norvegicus)
chain: AFDGTWKVDRNENYEKFMEKMGINVVKRKLGAHDNFKLTITQEGNKFTVKESSNFRNIDVVFELGVDFAYSAADGTELTGTWTMEGNKLVGKFKRVDNGKELIAVREISGNELIQTYTYEGVEAKRIFKKE
modifications: PEPTIDE (1)...(131) wild-type rat intestinal fatty acid binding protein
- DR/DR OA [1]: 0.55
- DR/DR AA [2]: 0.66
- DR/DR PA [3]: 0.52
- DR/DR LA [4]: 0.67
- DR/DR LNA [5]: 0.66

B11: 36G2, 72A (protein, listed as Rattus norvegicus)
chain: AFDGTWKVDRNENYEKFMEKMGINVVKRKLGAHDNGKLTITQEGNKFTVKESSNFRNIDVVFELGVDFAYSAADGTELTGTWTMEGNKLVGKFKRVDNGKELIAVREISGNELIQTYTYEGVEAKRIFKKE
modifications: PEPTIDE (1)...(131) wild-type rat intestinal fatty acid binding protein
- DR/DR OA [1]: 0.97
- DR/DR AA [2]: 1.00
- DR/DR PA [3]: 0.55
- DR/DR LA [4]: 1.17
- DR/DR LNA [5]: 1.16

B12: 36H1, 72A (protein, listed as Rattus norvegicus)
chain: AFDGTWKVDRNENYEKFMEKMGINVVKRKLGAHDNHKLTITQEGNKFTVKESSNFRNIDVVFELGVDFAYSAADGTELTGTWTMEGNKLVGKFKRVDNGKELIAVREISGNELIQTYTYEGVEAKRIFKKE
modifications: PEPTIDE (1)...(131) wild-type rat intestinal fatty acid binding protein
- DR/DR OA [1]: 0.77
- DR/DR AA [2]: 0.76
- DR/DR PA [3]: 0.40
- DR/DR LA [4]: 0.81
- DR/DR LNA [5]: 0.86

B13: 36I1, 72A (protein, listed as Rattus norvegicus)
chain: AFDGTWKVDRNENYEKFMEKMGINVVKRKLGAHDNIKLTITQEGNKFTVKESSNFRNIDVVFELGVDFAYSAADGTELTGTWTMEGNKLVGKFKRVDNGKELIAVREISGNELIQTYTYEGVEAKRIFKKE
modifications: PEPTIDE (1)...(131) wild-type rat intestinal fatty acid binding protein
- DR/DR OA [1]: 0.95
- DR/DR AA [2]: 1.01
- DR/DR PA [3]: 0.80
- DR/DR LA [4]: 1.11
- DR/DR LNA [5]: 1.13

B14: 36K, 72A (protein, listed as Rattus norvegicus)
chain: AFDGTWKVDRNENYEKFMEKMGINVVKRKLGAHDNKKLTITQEGNKFTVKESSNFRNIDVVFELGVDFAYSAADGTELTGTWTMEGNKLVGKFKRVDNGKELIAVREISGNELIQTYTYEGVEAKRIFKKE
modifications: PEPTIDE (1)...(131) wild-type rat intestinal fatty acid binding protein
- DR/DR OA [1]: 0.41
- DR/DR AA [2]: 0.38
- DR/DR PA [3]: 0.16
- DR/DR LA [4]: 0.38
- DR/DR LNA [5]: 0.42

B15: 102N, 72A (protein, listed as Rattus norvegicus)
chain: AFDGTWKVDRNENYEKFMEKMGINVVKRKLGAHDNLKLTITQEGNKFTVKESSNFRNIDVVFELGVDFAYSAADGTELTGTWTMEGNKLVGKFKRVDNGKENIAVREISGNELIQTYTYEGVEAKRIFKKE
modifications: PEPTIDE (1)...(131) wild-type rat intestinal fatty acid binding protein
- DR/DR OA [1]: 0.69
- DR/DR AA [2]: 0.64
- DR/DR PA [3]: −1.09
- DR/DR LA [4]: 0.67
- DR/DR LNA [5]: 0.71

B16: 36L, 72A wt (protein, listed as Rattus norvegicus)
chain: AFDGTWKVDRNENYEKFMEKMGINVVKRKLGAHDNLKLTITQEGNKFTVKESSNFRNIDVVFELGVDFAYSAADGTELTGTWTMEGNKLVGKFKRVDNGKELIAVREISGNELIQTYTYEGVEAKRIFKKE
modifications: PEPTIDE (1)...(131) wild-type rat intestinal fatty acid binding protein
- DR/DR OA [1]: 1.25
- DR/DR AA [2]: 1.25
- DR/DR PA [3]: 1.13
- DR/DR LA [4]: 1.21
- DR/DR LNA [5]: 1.00

B17: 36M, 72A (protein, listed as Rattus norvegicus)
chain: AFDGTWKVDRNENYEKFMEKMGINVVKRKLGAHDNMKLTITQEGNKFTVKESSNFRNIDVVFELGVDFAYSAADGTELTGTWTMEGNKLVGKFKRVDNGKELIAVREISGNELIQTYTYEGVEAKRIFKKE
modifications: PEPTIDE (1)...(131) wild-type rat intestinal fatty acid binding protein
- DR/DR OA [1]: 1.12
- DR/DR AA [2]: 1.23
- DR/DR PA [3]: 0.97
- DR/DR LA [4]: 1.10
- DR/DR LNA [5]: 1.08
